Assay [1] addresses Purified MDM2 (1-125) protein (human MDM2 1-125 sequence comprising a modified TEV cleavage site, pNIC-GST fusion) (human) (UniProt Q00987). Description: competitive fluorescence anisotropy (FP) against FAM-labeled 12/1 peptide on MDM2 (1-125); apparent Kd. (In general: Polarisation of emitted light reports the rotation of a fluorescent probe.)
Assay [2] deals with MDM2 (in HCT116 cells) (human) (UniProt Q00987). The assay can be described thus: cell-based or functional assay.

Sequence of Purified MDM2 (1-125) protein (human MDM2 1-125 sequence comprising a modified TEV cleavage site, pNIC-GST fusion) (human) (Q00987 1-125 limits assumed): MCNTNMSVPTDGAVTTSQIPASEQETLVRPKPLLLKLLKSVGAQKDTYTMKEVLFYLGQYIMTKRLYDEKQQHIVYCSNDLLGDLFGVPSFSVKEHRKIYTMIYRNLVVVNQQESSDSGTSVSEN

“Acetyl-^DPMI-δ-(6-10 olefin staple) (D-K9D-Q, D-R12D-S) (D-A)-(D-F)-(D-A)-(D-Ala)-(D-A)-(D-A) polypeptide tail)-NH2”: the Kd in assay [1] was 30 nM.

For “Acetyl-^DPMI-δ-(6-10 olefin staple) (D-K9D-Q, D-R12D-S)-NH2 (peptide)”, the Kd in assay [1] is 258 nM. As to “Acetyl-^DPMI-δ-(6-10 olefin staple) (D-K9D-Q, D-R12D-S, 3x(D-A) polypeptide tail)-NH2”, the Kd in assay [1] amounted to 3.1 nM.

Regarding “Acetyl-^DPMI-δ-(6-10 olefin staple) (D-K9D-Q, D-R12D-S, 3x(D-Ala)-(D-Glu)-2x(D-Ala) polypeptide tail)-NH2”, the Kd in assay [1] was 0.43 nM.

In the case of “^DPMI-δ-(5-12 olefin staple)-NH2 (peptide)”, in assay [2], the p53 activity EC50 (µM) (0% FBS, 4 h) stood at 13.6 µM and the p53 activity EC50 (µM) (10% FBS, 16 h) is 30.8 µM. Further, the Kd in assay [1] worked out at 33.9 nM. For the substance “^DPMI-δ-(6-10 olefin staple)-NH2 (peptide)”, the Kd in assay [1] came out at 118 nM.

The values above are taken from US20250042961A1, “P53 PEPTIDOMIMETIC MACROCYCLES” (MERCK SHARP & DOHME LLC, priority 2021, published 2025).
